Results: patent US20040049800A1, “Rapid methods for assessing therapeutic activity using animals expressing constitutively active G protein coupled receptors” (priority 2002, published 2004)
Substitutions are numbered along the chain they refer to.

Experiments:
[1] = molecular target: Asn150Ala mutant rat mu opioid receptor (rat) (UniProt P33535); assay: cell-based or functional assay
[2] = molecular target: wild-type rat mu opioid receptor (rat) (UniProt P33535); assay: cell-based or functional assay
[3] = tested on: SMS-Luc reporter in HEK293 cells; assay: SMS-Luc luciferase reporter assay of MC-4 receptors in HEK293 cells; type: cell-based
Description: (§1) Briefly, HEK293 cells were cotransfected, as described above, with an expression vector encoding either the wild-type MC-4 receptor or the Asp146Met mutant MC-4 receptor and the reporter construct, SMS-Luc. As a negative control, cells were transfected with SMS-Luc and pcDNA1. Basal and ligand (αMHS) induced activity of the negative control, the wild-type MC-4 receptor, and the Asp146Met mutant MC-4 receptor were measured using the luciferase assay described above. […] Other constitutively active MC-4 receptors may be generated by this or any other approach and introduced as transgenics into animals of the invention

cAMP production = assay: basal level cAMP production of MC-4 receptor mutant; type: cell-based; details: FIG. 2
From the text: FIG. 2 is a graph showing the constitutive activity of a D146M MC-4 receptor mutant as assayed by measuring basal level cAMP production.
as §1

[4] = tested on: SMS-Luc reporter in HEK293 cells; assay: SMS-Luc luciferase reporter assay of CCK-BR receptors in HEK293 cells; type: cell-based; details: FIG. 3
Description: In addition to these studies, luciferase assays were performed to measure the constitutive activity of the Leu325Glu CCK-BR mutant. HEK293 cells were transfected (as described above) with SMS-Luc and an expression vector encoding any one of pcDNA1, wild-type CCK-BR, or Leu325Glu CCK-BR.

[5] = tested on: phospholipase C-mediated production of inositol phosphate in COS-7 cells; details: absence of agonist; cited from earlier work
[6] = tested on: SRE-Luc + Gq5i reporter in HEK293 cells; assay: SRE-Luc/Gq5i luciferase reporter assay in transfected HEK293 cells; type: cell-based; details: for stimulation of basal level activity: Asn150Ala mutant versus wild-type receptor; for Ligand Induced Activity (Light Emission) / Basal Activity (Light Emission): HEK293 cells; for Ligand Induced Activity (Light Emission): ligand DAMGO; for Basal Activity (Light Emission): no ligand
Description: Constitutive activity of the Asn150Ala mutant rat mu opioid receptor was assessed using a luciferase assay. The rat mu opioid receptor is a Gαi coupled receptor. Therefore we chose to use the Gq5i reporter system, described in detail above (Broach and Thorner, supra), which switches the signaling pathway from Gαi to Gαq for reliable positive readout. HEK293 cells were transfected with the reporter construct SRE-Luc, an expression vector containing nucleic acid encoding Gq5i (Broach and Thorner, supra), and an expression vector containing nucleic acid encoding either the wild-type or the Asn150Ala mutant rat mu opioid receptor. Basal and ligand-stimulated luciferase activity was measured. The ligand used in this assay was [D-Ala^2-MePhe^4, Gly-ol^5]enkephalin] (DAMGO). As a negative control, HEK293 cells were transfected with pcDNA1 (empty vector DNA), SRE-Luc, and the expression vector containing nucleic acid encoding Gq5i (Broach and Thorner, supra).
The luciferase assay was carried out as follows. On day 1, HEK293 cells in a T75 flask were washed with 15 ml serum-free media (or PBS), trypsinized with 5 ml 0.05% trypsin-EDTA (Gibco #25300-062), incubated at 37° C. for 3 minutes at which time 6-7 ml complete HEK293 media (Gibco #12100-046) and 10% Fetal Bovine Serum (Intergen #1050-90) were added. Thereafter, cells were collected in 50 ml centrifuge tubes, pelleted at 800-900 rpm (RCF ˜275), and resuspend in 20 ml complete media. The cells were counted using a haemocytometer and diluted to 85,000 cells/ml in complete media. Using a repeat pipettor or cell plater, 100 μl of cells were added to each well of a Primaria 96-well plate (Falcon #353872). Cells were then incubated at 37° C., 5% CO2 until use at 48 hours.
On day 3, cells were transfected using LipofectAMINE™ according to the manufacturer's protocol (Gibco #18324-012, Rockville, Md.).
On day 4, cells were stimulated as follows. Ligands for the receptor, either DAMGO or a non-peptide ligand (e.g., naloxone or naltrexone), were diluted to a desired concentration in serum-free media containing 0.15 mM PMSF (or other protease inhibitor(s)). The transfection media was then completely removed from cells and 50-100 μl stimulation media (i.e., media containing candidate ligands or the corresponding ligand free solvent) was added to each well. The cells were incubated for the desired time (standard is overnight) at 37° C., 5% CO2, although the optimal stimulation time may vary depending on the particular receptor used. The optimal incubation time may be determined systematically by testing a range of incubation times and determining which one yields the highest level of stimulation. For concomitant assessment of two ligands (e.g., ligand induced inhibition of forskolin stimulated CRE activity) each stimulus is prepared at two times the desired final concentration and mixed in equal volumes prior to addition to cells.
On day 5, an assay for luciferase expression was carried out according to the manufacturer's instructions (Packard, Meridin, Conn.)

[D-Ala^2-MePhe^4, Gly-ol^5]enkephalin (peptide)
Ligand Induced Activity (Light Emission), SRE-Luc + Gq5i luciferase reporter in HEK293 cells (Light Emission) [1]: 87000
Ligand Induced Activity (Light Emission), SRE-Luc + Gq5i luciferase reporter in HEK293 cells (Light Emission) [2]: 87500

Asp146Met mutant MC-4 receptor: melanocortin-4 receptor with Asp at position 146 of the DRY motif replaced by Met
basal level activity versus wild-type MC-4 receptor [3]: higher basal level activity than its wild-type counterpart
constitutive activity in cAMP assay (cAMP production): exhibited constitutive activity

B1: Leu325Glu CCK-BR mutant: human CCK-BR with point mutation Leu325Glu in the third intracellular loop; constitutively active (protein, UniProt P32239 1-447, looked up, variant L325E)
Gastrin/cholecystokinin type …: MELLKLNRSVQGTGPGPGASLCRPGAPLLNSSSVGNLSCEPPRIRGAGTRELELAIRITLYAVIFLMSVGGNMLIIVVLGLSRRLRTVTNAFLLSLAVSDLLLAVACMPFTLLPNLMGTFIFGTVICKAVSYLMGVSVSVSTLSLVAIALERYSAICRPLQARVWQTRSHAARVIVATWLLSGLLMVPYPVYTVVQPVGPRVLQCVHRWPSARVRQTWSVLLLLLLFFIPGVVMAVAYGLISRELYLGLRFDGDSDSDSQSRVRNQGGLPGAVHQNGRCRPETGAVGEDSDGCYVQLPRSRPALELTALTAPGPGSGSRPTQAKELAKKRVVRMLLVIVVLFFLCWLPVYSANTWRAFDGPGAHRALSGAPISFIHLLSYASACVNPLVYCFMHRRFRQACLETCARCCPRPPRARPRALPDEDPPTPSIASLSRLSYTTISTLGPG
basal level activity compared to wild-type CCK-BR [4]: increased basal level activity compared to the wild-type CCK-BR
agonist-independent constitutive activity (inositol phosphate production) [5]: triggers constitutive production of inositol phosphates to levels exceeding wild-type CCK-BR

B2: Asn150Ala rat mu opioid receptor: rat mu opioid receptor with Asn150Ala point mutation at position 150 of SEQ ID NO: 1; constitutively active (protein, listed as Rattus norvegicus)
chain: MDSSTGPGNTSDCSDPLAQASCSPAPGSWLNLSHVDGNQSDPCGLNRTGLGGNDSLCPQTGSPSMVTAITIMALYSIVCVVGLFGNFLVMYVIVRYTKMKTATNIYIFNLALADALATSTLPFQSVNYLMGTWPFGTILCKIVISIDYYAMFTSIFTLCTMSVDRYIAVCHPVKALDFRTPRNAKIVNVCNWILSSAIGLPVMFMATTKYRQGSIDCTLTFSHPTWYWENLLKICVFIFAFIMPILIITVCYGLMILRLKSVRMLSGSKEKDRNLRRITRMVLVVVAVFIVCWTPIHIYVIIKALITIPETTFQTVSWHFCIALGYTNSCLNPVLYAFLDENFKRCFREFCIPTSSTIEQQNSTRVRQNTREHPSTANTVDRTNHQLENLEAETAPLP
stimulation of basal level activity [6]: *6.5-fold stimulation of basal level activity.
stimulation of basal level activity ([6]; listed as Asn150Ala mutant mu opioid receptor): approximately 6.5 fold
Ligand Induced Activity (Light Emission) [6]: 86,996
Basal Activity (Light Emission) [6]: *56,498

B3: wild-type rat mu opioid receptor: wild-type rat mu opioid receptor (SEQ ID NO: 1), Gαi coupled receptor, comparator (protein, listed as Rattus norvegicus)
chain: B2 chain with A150N
Ligand Induced Activity (Light Emission) [6]: 87,461
Basal Activity (Light Emission) [6]: 8,436
